From patent publication US9599605 (BOSTON MEDICAL CENTER, dated 2017)

Key:
[1] = molecular target: Endogenous mouse STIM1 (mouse) (UniProt P70302); experiment: cell-based or functional assay
[2] = molecular target: T1, Overexpressed ^YFPSTIM1 from extracts of FreeStyle 293-F cells (UniProt Q13586 23-685); experiment: pull-down on SNAP-immobilized bait, Western blot
T1 construct: not shown: YFP of the YFPSTIM1 construct (gift from Dr. T. Meyer)
Procedure: (§1) A: with full-sized original images of immunoblots (B and C).
(§2) The cells were harvested 48 h after transfection, lysed on ice in lysis buffer (25 mM Tris-HCl, pH 7.5, 150 mM NaCl, 0.5% NP-40, 5% glycerol, 2 mM DTT, 1×HALT Protease inhibitors cocktail (Pierce), 1 mM PMSF) and the extracts were cleared by centrifugation for 15 min at 16,000 g at 4° C. Each SNAP-tagged protein was covalently immobilized by incubating ~800 µL of the extract with 25 µL bed volume of SNAP Capture Resin (New England Biolabs), equilibrated with Resin Wash Buffer (RWB; 25 mM Tris-HCl, pH 7.5, 150 mM NaCl, 5% glycerol), for 16 h at 6° C. Control sample of each extract was incubated under the same conditions in the absence of the resin. Following immobilization, the resin was collected in the mini spin column (Pierce), washed 5 times on ice with 600 µL of RWB, combined with the prey protein extract, and incubated with orbital mixing at ~600-800 rpm for 6 h at 4° C.

[3] = molecular target: T2, Endogenous STIM1 from extracts of Jurkat T lymphocytes (human, UniProt Q13586 23-685); experiment: pull-down on SNAP-immobilized bait, Western blot
T2 construct: Prey protein in a cell lysate, detected by Western blot
T2 sequence (Q13586 23-685 limits assumed): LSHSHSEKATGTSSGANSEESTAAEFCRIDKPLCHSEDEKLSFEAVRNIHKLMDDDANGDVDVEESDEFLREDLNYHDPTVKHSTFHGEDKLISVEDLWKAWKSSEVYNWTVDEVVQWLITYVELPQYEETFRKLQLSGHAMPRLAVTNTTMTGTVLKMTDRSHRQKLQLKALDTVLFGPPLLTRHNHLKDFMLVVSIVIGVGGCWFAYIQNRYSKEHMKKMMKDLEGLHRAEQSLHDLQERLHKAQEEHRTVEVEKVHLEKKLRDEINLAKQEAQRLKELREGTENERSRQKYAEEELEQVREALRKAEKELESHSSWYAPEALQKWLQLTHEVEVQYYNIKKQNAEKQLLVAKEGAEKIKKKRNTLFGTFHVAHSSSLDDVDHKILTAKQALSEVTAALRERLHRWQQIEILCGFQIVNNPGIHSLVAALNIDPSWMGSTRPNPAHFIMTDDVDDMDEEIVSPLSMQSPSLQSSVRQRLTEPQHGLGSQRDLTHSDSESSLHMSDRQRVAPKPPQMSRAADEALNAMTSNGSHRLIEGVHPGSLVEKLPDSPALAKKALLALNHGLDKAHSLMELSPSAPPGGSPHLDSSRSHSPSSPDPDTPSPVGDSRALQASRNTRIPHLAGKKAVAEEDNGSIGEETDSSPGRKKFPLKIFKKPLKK
Procedure: as §1, §2

T1 sequence (Q13586 23-685): as the sequence (Q13586 23-685 limits assumed) above
Endogenous mouse STIM1 (mouse), sequence (P70302 23-685 limits assumed): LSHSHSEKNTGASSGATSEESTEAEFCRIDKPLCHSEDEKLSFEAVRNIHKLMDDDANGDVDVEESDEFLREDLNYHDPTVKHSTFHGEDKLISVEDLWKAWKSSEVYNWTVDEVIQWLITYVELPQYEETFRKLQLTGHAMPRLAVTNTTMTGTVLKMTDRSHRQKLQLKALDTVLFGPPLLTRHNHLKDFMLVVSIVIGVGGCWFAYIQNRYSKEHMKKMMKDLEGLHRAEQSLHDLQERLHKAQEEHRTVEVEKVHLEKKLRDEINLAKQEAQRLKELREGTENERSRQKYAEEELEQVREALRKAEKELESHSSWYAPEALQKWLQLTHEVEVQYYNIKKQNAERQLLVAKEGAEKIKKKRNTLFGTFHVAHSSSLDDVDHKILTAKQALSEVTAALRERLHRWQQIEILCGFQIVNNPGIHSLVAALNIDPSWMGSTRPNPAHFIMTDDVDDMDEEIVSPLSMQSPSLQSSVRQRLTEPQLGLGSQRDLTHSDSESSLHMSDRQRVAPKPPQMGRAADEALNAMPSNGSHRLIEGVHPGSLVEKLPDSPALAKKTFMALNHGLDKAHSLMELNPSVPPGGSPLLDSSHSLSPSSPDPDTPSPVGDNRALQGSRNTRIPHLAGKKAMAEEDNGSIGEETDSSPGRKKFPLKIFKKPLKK

Row | Molecule | peak of Ca^2+ release caused by ionomycin in MEFs from KO^Ex2 mice compared to WT [1] | binding result [2] | binding result [3]
1 | N-terminally truncated endogenous mouse PLA2g6(L) of KO^Ex2 mice (from UniProt P97819 179-807) (enzyme) | 60% |  | 
2 | C-terminally SNAP-tagged N-terminally truncated human PLA2g6(L)^179-806 (enzyme, covalently immobilized on SNAP Capture Resin through the SNAP tag ; Covalently immobilised on SNAP Capture Resin through the C-terminal SNAP tag, which is not in the letters, Mimics the N-terminally truncated protein expected in KO^Ex2 mice; not shown: C-terminal SNAP tag and the vector linker of pSNAP-tag(m) (New England Biolabs)) MDVTDYKGETVFHYAVQGDNSQVLQLLGRNAVAGLNQVNNQGLTPLHLACQLGKQEMVRVLLLCNARCNIMGPNGYPIHSAMKFSQKGCAEMIISMDSSQIHSKDPRYGASPLHWAKNAEMARMLLKRGCNVNSTSSAGNTALHVAVMRNRFDCAIVLLTHGANADARGEHGNTPLHLAMSKDNVEMIKALIVFGAEVDTPNDFGETPTFLASKIGRLVTRKAILTLLRTVGAEYCFPPIHGVPAEQGSAAPHHPFSLERAQPPPISLNNLELQDLMHISRARKPAFILGSMRDEKRTHDHLLCLDGGGVKGLIIIQLLIAIEKASGVATKDLFDWVAGTSTGGILALAILHSKSMAYMRGMYFRMKDEVFRGSRPYESGPLEEFLKREFGEHTKMTDVRKPKVMLTGTLSDRQPAELHLFRNYDAPETVREPRFNQNVNLRPPAQPSDQLVWRAARSSGAAPTYFRPNGRFLDGGLLANNPTLDAMTEIHEYNQDLIRKGQANKVKKLSIVVSLGTGRSPQVPVTCVDVFRPSNPWELAKTVFGAKELGKMVVDCCTDPDGRAVDRARAWCEMVGIQYFRLNPQLGTDIMLDEVSDTVLVNALWETEVYIYEHREEFQKLIQLLLSP |  | no binding | no binding
